In patent publication US20240158500A1 (UCL BUSINESS, published 2024):
Where a chain is given by its changes, count along the chain named.

T1: purified CD160 (SPR analyte) (UniProt O95971 25-159, limits assumed)
T1 sequence (looked up): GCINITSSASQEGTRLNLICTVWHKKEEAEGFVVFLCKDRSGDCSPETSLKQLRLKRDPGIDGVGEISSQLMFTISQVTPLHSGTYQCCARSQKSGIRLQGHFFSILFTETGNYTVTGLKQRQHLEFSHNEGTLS

B1: anti-CD160 scFv clone 10 (scFv)
scFv: EVQLVESGPGLVQPSETLSLTCTVSGFSLTSYGVNWFRQPPGKGLEWMGTIWNDGGTDYNSALKSRLSISRDTSKSQVFLKMNSLQTEDTAIYFCARGFEYWGQGTLVTVSSGGGGSGGGGSGGGGSDIVMTQSPKSMSISVGDRVTMNCKASQNVGKNIAWYQQKPGQSPKLLIYYASNRYTGVPDRFTGSGSGTDFTLTITNMQTEDLAVYYCLQYNYNPWTFGGGTKLELKR
notes: Rat scFv, VH-linker-VL
B2: anti-CD160 scFv clone 2 (C25) (scFv)
scFv: EVQLVESGGDLVQPGRSLKLSCAASGFTFSNYGMAWVRQAPTKGLEWVASVSNGGGNTYYRDSVKGRFTISRDNAKNTQYLQMDSLRSEDTATYYCVTHNYESTVFDYWGQGAMVTVSSGGGGSGGGGSGGGGSEIVLTQSPTTMTASPGEKVTITCRASSSVSYMHWYQQKPGASPKPWIYETSKLASGVPDRFSGSGSGTSYSLTINNMEAEDAATYYCQQWNYPSMYTFGPGTKLELKR
B3: anti-CD160 scFv clone 19 (scFv)
scFv: B2 scFv with Q3K, D10G, S50T, V51I, T98A, T144P, P234A
notes: Rat scFv, VH-linker-VL
B4: anti-CD160 scFv clone 12 (scFv)
scFv: EVQLVESGGGFVQPGGSLKLSCAASGFTFSNYGMAWVRQAPKKGLEWVASISSGRGNTYYRDSVKGRFTISRDNAKNTQYLQMDSLRSEDTATYYCVTHNYESTIFDYWGQGVMVTVSSGGGGSGGGGSGGGGSEIVLTQSPTTMTASPGEKVTIICRASSSVSYMHWYQQKPGASPKPWIYETSKLASGVPDRFSGSGSGTSYSLTFNNMEAEDAATYYCQQWNYPSMYTFGAGTKLELKR
notes: Rat scFv, VH-linker-VL
B5: anti-CD160 scFv clone 5 (C10) (scFv)
scFv: QVQLKESGPGLVQPSETLSLTCTVSGFSLTNYGINWFRQPPGKGLEWMGTIWNDGGTDYNSALKSRLTISRDTSKSQVFLKMNSLQTEDTAIYFCARGMEAWGQGASVTVSSGGGGSGGGGSGGGGSDIQLTQSPSLLSASVGDRVTLSCKGSQNINNYLAWYQQKLGEAPKLLIYNTNSLQTGIPSRFSGSGSGTDYTLTISSLQPEDFATYFCLQHNSGYTFGAGTKLEIKR
notes: Rat scFv, VH-linker-VL; also called 010
B6: anti-CD160 scFv clone 7 (scFv)
scFv: EVQLVESGPGLVQPSETLSLTCTVSGFSLTSHGVNWFRQPPGKGLEWMGTIWNDGGTDYNSALKSRLSIIRDTSKGQVFLKMNSLQTEDTAIYFCARGLAYWGQGTLVTVSSGGGGSGGGGSGGGGSDIQMTQSPASLSASLGETVNIECLASEDIYSDLAWYQQKPGKSPQLLIYNANSLQNGVPSRFSGSGSGTQYSLKINSLQSEDVATYFCQQYNNYPWTFGGGTKLEIKR
notes: Rat scFv, VH-linker-VL
B7: anti-CD160 scFv clone 16 (scFv)
scFv: QVNLQESGPGLVRPSETLSLTCTVSGFSLISYGVNWFRQPPGKGLEWMGTIWNDGGTDYNSALKSRLSISRDTSKSQVFLKMNSLQTEDTAIYFCARGFEHWGQGVMVTVSSGGGGSGGGGSGGGGSDIQMTQSPASLSASLGETVSIECLTSEDISNDSAWYQQKSGKSPQLLIYAASRLQDGVPSRFSGSGSGTRYSLKISGMQPEDEADYFCQQSYKYPLTFGSGTKLEIKR
notes: Rat scFv, VH-linker-VL
B8: anti-CD160 scFv clone 1 (C123) (scFv)
scFv: EVKLVESGGGLVQPGRSLKLSCAASGFIFSNYAMAWVRQAPTKGLEWVASVNSGGANTYYRDSVKGRFTISRDNAKNTQYLHIDSLRSEDTATYYCATHNYESTVFDYWGQGAMVTVSSGGGGSGGGGSSGGGGSEIVLTQSPTTMTASPGEKVTITCRASSSVSYMHWYQQKPGASPKPWIYETSKLASGVPDRFSGSGSGTSYSLTINNMEAEDAATYYCQQWNYPSMYTFGAGTKLELKR
notes: Rat scFv, VH-linker-VL
B9: anti-CD160 scFv clone 6 (SC14) (scFv)
scFv: EVQLVESGGGFVQPGRSLKLSCAASGFTFSNYAMAWVRQAPTKGLEWVASINSGGGDSYYRDSVKGRFTISRDNAKNTQYLQMDSLRSEDTATYYCATHNYGSTIFDYWGQGAMVTVSSGGGGSGGGGSGGGGSEIILTQSPTTMTASPGEKVTITCRASSSVSYMHWYQQKPGASPKPWIYETSKLASGVPDRFSGSGSGTSYSLTINNMEAEDAATYYCQQWNYPSMYTFGAGTKLELKR
notes: Rat scFv, VH-linker-VL
B10: anti-CD160 scFv clone 9 (PB6) (scFv)
scFv: EVQLVESGGGLVQPGRSLKLSCAASGFTFSNYAMAWVRQAPTKGLEWVASISSGGGDTYYRDSVKGRFTISRDNSKNTQYLQMDSLRSEDTATYYCATHNYESTVLITWGQGASVTVSSGGGGSGGGGSGGGGSEIVLTQSPTTTAASPGERVTITCRASSSVSYMHWYQQKPGASPKPWIYETSKLASGVPDRFSGSGSGTSYSLTINNMEAEDAATYYCQQWNYPSMYTFGAGTKLEIKR
notes: Rat scFv, VH-linker-VL
B11: anti-CD160 scFv clone 3 (C83) (scFv)
scFv: QVNLQESGPGLVQPSETLSLTCTVSGFSLTSYGVYWVRQPPGKGLEWMGRIWNDGGTDYNPALKSRLSISRDTSKSQVFLKLNSLQTEDTAIYFCARGWTHWGQGTLVTVSSGGGGSGGGGSGGGGSDIQMTQSPASLSASLGETVSIECLASEDIYNNLAWYQQKPGKSPQLLIYYASSLQDGVPSRFSGSGSGTQYSLKINSLESEDVATYFCLQDSEYPPTFGGGTKLELKR
B12: anti-CD160 scFv clone 4 (scFv)
scFv: EVKLVESGGGLVQPGRPLKLSCAASGFTFSNYGMAWVRQAPKKGLEWVATISTGDDNTYYRDSVKGRFTISRDNAKNTQYLQMDSLRSEDTATYYCATHNYESTIFDYWGQGVMVTVSSGGGGSGGGGSGGGGSDIAITQSPASMTASPGERVTITCRASSSVSYMHWYQQKPGASPKPWIYETSKLASGVPDRFSGSGSGTSYSLTINNMEAEDAATYYCQQWNYPSMYTFGAGTKLELKR
B13: anti-CD160 scFv clone 8 (PB9) (scFv)
scFv: QVNLQESGPGLVQPSETLSLTCTVSGFSLTNYGINWFRQPPGKGLEWMGTIWNDGGTDYNSALKSRLSISRDTSKSQVFLKMNSLQTEDTAIYFCARGMDAWGQGASVTVSSGGGGSGGGGSGGGGSDIQMTQSPASLSASLGETVSIECLASEDIYNNLAWYQQKPGKSPQLLIYYANSLQDGVPSRFSGSGSGTQYSLKINSLQSEDVATYFCQQYNNYPFTFGSGTKLELKR
notes: Rat scFv, VH-linker-VL
B14: anti-CD160 scFv clone 11 (PB10) (scFv)
scFv: EVQLVESGGGLVQPGRSLKLSCAASGFTFSNYGMAWVRQAPTKGLEWVASINTSGGSTYYRDSVKGRFTISRDNAKSTLYLQMDSLRSEDTATYYCATIYYHDGSYYYAGWFAYWGQGTLVTVSSGGGGSGGGGSGGGGSDIVLTQSPALAVSPGERVSISCRASESVSTLMHWYQQKLGQQPKLLIYGASNLESGVPARFSGSGSGTDFTLNIDPVEADDIATYFCQQSWNGPWTFGGGTKLELKR
notes: Rat scFv, VH-linker-VL

Legend:
[1] = target: commercially sourced CD160 protein (UniProt O95971); assay: ELISA, coating antigen CD160-His (Commercial CD160), BY55-huIgG1 titrated, OD 450nm. The table under panel C repeats the value
[2] = target: CD160 fused with Twin streptag (panning reagent from transfected 293T supernatant, unpurified or purified via its Fc region) (human) (UniProt O95971); assay: ELISA, coating antigen HEK supernatant (unpurified CD160 mIgG2a Fc), BY55-huIgG1 titrated, OD 450nm. The table under panel C repeats the value. The curve has no upper plateau in the range shown
[3] = target: CD160 fused with Twin streptag (panning reagent from transfected 293T supernatant, unpurified or purified via its Fc region) (human) (UniProt O95971); assay: ELISA, coating antigen CD160-Fc purified (Purified CD160 mIgG2a Fc), BY55-huIgG1 titrated, OD 450nm. The table under panel C repeats the value. The curve has no upper plateau in the range shown
[4] = target: human CD160, GPI-anchored isoform, on engineered cells (SupT1, 293T) (human) (UniProt O95971); assay: flow cytometry, 293T cells transiently transfected with pVAC2 human CD160; the same quadrant on non-transfected 293T cells prints 0.071
[5] = target: human CD160, GPI-anchored isoform, on engineered cells (SupT1, 293T) (human) (UniProt O95971); assay: flow cytometry, BY55-IgM-PE. The thick histogram (SupT1 CD160) peaks at about 10^4, the thin one (SupT1 negative) below 10^2 [Continued) B]
[6] = target: human CD160, GPI-anchored isoform, on engineered cells (SupT1, 293T) (human) (UniProt O95971); assay: flow cytometry, 293T cells transiently transfected with pVAC2 human CD160; the same quadrant on non-transfected 293T cells prints 1.53
[7] = target: T1, purified CD160 (SPR analyte); assay: SPR, Biacore T200, scFv captured on CM5 chip, CD160 as analyte, single-cycle kinetics, 1:1 Langmuir fit
Protocol: FIG. 8—Characterization of the monoclonal scFv identified in the biopanning. [A] […] We identified five different CDR3H in which three were represented in multiple clones and […]. [B] Flow cytometry analysis of the five selected CDR3 expressed secreted as chimeric scFv fused with mIgG2aFc. […] [C] The affinity of these five scFv was determined using Biacore T200 technology. Individual scFvs were captured on a CM5 chip and CD160 was injected as analyte at 5 different concentration (3.70 nM, 11.11 nM, 33.33, nM, 100 nM and 300 nM) in a single-cycle kinetic study. The double-reference subtracted sensorgrams fitted with the 1:1 Langmuir binding model; kinetic and model fitting data are reported in the table.
The kinetic profile of the scFvs was studied by SPR using purified CD160 as the analyte and a range of high affinity scFvs were found (FIG. 8).

Row | Molecule | Kd [7] | koff [7] | kon [7] | further results
1 | BY55-huIgG1 (antibody) |  |  |  | EC50 [1]: 0.14 mg/L; EC50 [2]: 0.06 mg/L; EC50 [3]: 0.21 mg/L
2 | commercial anti-CD160 antibody BY55 |  |  |  | Q2 (anti-CD160-PE positive, blank channel positive), share of cells [4]: 14%; CD160+ (gate, share of cells) [5]: 92.9; Q1 (anti-CD160-PE positive, blank channel negative), share of cells [6]: 66%
3 | B1 | 8.91 nM | 0.00245 s⁻¹ | 275000 M⁻¹ s⁻¹ | 
4 | B2 | 0.262 nM | 6.51e-05 s⁻¹ | 249000 M⁻¹ s⁻¹ | 
5 | B3 | 5.31 nM | 0.000833 s⁻¹ | 157000 M⁻¹ s⁻¹ | 
6 | B4 | 0.000853 nM | 1.75e-07 s⁻¹ | 205000 M⁻¹ s⁻¹ | 
7 | B5 | 18.4 nM | 0.0305 s⁻¹ | 1.65e+06 M⁻¹ s⁻¹ | 
8 | B6 | 0.33 nM | 0.00035 s⁻¹ | 1.06e+06 M⁻¹ s⁻¹ | 
9 | B7 | 8.72 nM | 0.00243 s⁻¹ | 279000 M⁻¹ s⁻¹ | 
10 | B8 | 0.00154 nM | 2.76e-07 s⁻¹ | 179000 M⁻¹ s⁻¹ | 
11 | B9 | 0.541 nM | 0.000143 s⁻¹ | 264000 M⁻¹ s⁻¹ | 
12 | B10 | 5.18 nM | 0.00211 s⁻¹ | 408000 M⁻¹ s⁻¹ | 
13 | B11 | 1.5e-05 nM | 1.69e-08 s⁻¹ | 1.13e+06 M⁻¹ s⁻¹ | 
14 | B12 | 0.12 nM | 3.9e-05 s⁻¹ | 325000 M⁻¹ s⁻¹ | 
15 | B13 | 4.92 nM | 0.00804 s⁻¹ | 1.63e+06 M⁻¹ s⁻¹ | 
16 | B14 | 9.15 nM | 0.00125 s⁻¹ | 137000 M⁻¹ s⁻¹ | 
